Four molecules from paper PMC6163455 (Biomolecules, 2018) can be followed below.

Experiment [1] deals with CHO-K1/SpyC_C-BLA cells. As to the kind of experiment: live-cell confocal microscopy of split β-lactamase complementation. The experiment is classed as cell-based, Chinese hamster. As to conditions: for cytosolic delivery and β-lactamase complementation signal by confocal microscopy: CHO-K1/SpyC_C-BLA cells, 4 µM protein, live cell confocal microscopy, Figure 3c–f. The text has this: (a) Live-cell functional uptake can be measured when N-terminal β-lactamase (N-BLA), fused to a CPP sequence, penetrates the cell membrane to complement C-terminal β-lactamase protein (C-BLA) in the cytosol (step i). Expression of the split β-lactamase moieties as fusions with either SpyTag (CPP_N-BLA_SpyT) or SpyCatcher (SpyC_C-BLA) facilitates rapid formation of functional β-lactamase proteins through SpyT/SpyC ligation inside the cells (step ii). This internalization is detected after addition of dye substrate (step iii) through cleavage of cytosol-retained CCF2 (step iv), which is measured via a change in fluorescence signal from green (520 nm) to blue (450 nm). (b) Internalization of CPP_N-BLA_SpyT and β-lactamase complementation in CHO-K1/SpyC_C-BLA cells is dose-dependent, measured by CCF2 cleavage (increase in % blue viable cells as estimated by flow cytometry). […] Error bars represent standard error of the mean of two independent experiments (duplicate samples). […] Bar scale is 50 µm.
Successful complementation of β-lactamase was dose- and CPP-dependent, with a limit of detection of ≤1 µM of CPP_N-BLA_SpyT. β-Lactamase complementation and N-BLA fragment internalization was visually confirmed using live cell confocal microscopy in CHO-K1/SpyC_C-BLA cells treated with Phylomer CPP_N-BLA_SpyT proteins (Figure 3c–f). The fluorescence signal is detectable as early as 30 min (Figure S2a). Signal conversion over time was confirmed by imaging cells treated with 1746c27_N-BLA_SpyT at sequential time points (Figure S2b,c), thus completing validation of the split assay system.
Cells were seeded (CHO-K1, 37,500 cells/mL; T47D 37,500 cells/mL) onto 4-well ibiTreat chamber slides (Thermo Fisher Scientific) and incubated for 48 h at 37 °C, 5% CO2. The medium was removed and replaced with medium containing SpyC_BLA/CPP_SpyT conjugated or unconjugated SpyC_BLA proteins and cells were incubated for 2 h at 37 °C, 5% CO2. After incubation, the cells were washed to remove any SpyC_BLA protein that had not internalized, loaded with substrate CCF2-AM (2 µM final concentration in media containing 1% FCS), and incubated for 1 h at room temperature. Live cells were visualized through confocal microscopy. Images were collected using a Nikon C2 Confocal Microscope through a 40× differential interference contrast (DIC) objective after excitation by a 408 nm laser. Bar scales in images represent 50 µm or 14.6 µm (zoom magnification 3.4×).
Figure S2. Split β-lactamase assay time course.
Live cell confocal microscopy imaging the CPP-mediated cytosolic internalization of 1746c27_N-BLA_SpyT (8 µM) in CHO-K1/C-BLA cells at (a) 30 min, (b) 60 min, and (c) 120 min after addition of CCF2-AM dye. The β-lactamase complementation signal is detectable as early as 30 min and continues to convert over time. Repeated excitation over time results in photobleaching of the converted fluorescence resonance energy transfer (FRET) substrate. Bar scale is 50 µm. […]
(also on this page, place not known: De ad ( B) ( D) ( E) 1746c27_N-BLA_SpyT + CHO-K1/SpyC_C-BLA) […]

The test system of experiment [2] is CHO-K1/SpyC_C-BLA cells. As to the kind of experiment: split β-lactamase cytosolic delivery assay (CCF2-AM, flow cytometry). The format is cell-based, Chinese hamster. As to conditions: CHO-K1/SpyC_C-BLA stable cells, blue fluorescent cells after 1 h, two independent experiments, duplicate samples, Figure 3b. The text has this: SpyT/SpyC ligation enables specific covalent linkage of the split components when mixed together, thus reactivating β-lactamase activity. SpyC_C-BLA was selected for mammalian expression in stable cell lines, and N-BLA_SpyT was selected for CPP incorporation onto its N-terminus (CPP_N-BLA_SpyT). Constitutively expressed SpyC_C-BLA in the cytoplasm of stable cell lines can be complemented by CPP-delivered N-BLA_SpyT, thus forming functional β-lactamase.
In brief, CPP sequences are made as fusions to N-BLA_SpyT (CPP_N-BLA_SpyT, Figure 3a, step i). […] Cell penetrating peptide-dependent β-lactamase complementation and activity is detected by cleavage of the CCF2 substrate (Figure 3a, step iv). As in the full-length β-lactamase internalization assay, this reaction is measured as a shift in fluorescent signal from green to blue. […]
Successful complementation of β-lactamase was dose- and CPP-dependent, with a limit of detection of ≤1 µM of CPP_N-BLA_SpyT. β-Lactamase complementation and N-BLA fragment internalization was visually confirmed using live cell confocal microscopy in CHO-K1/SpyC_C-BLA cells treated with Phylomer CPP_N-BLA_SpyT proteins (Figure 3c–f). The fluorescence signal is detectable as early as 30 min (Figure S2a). […]
(In flow cytometry, cells or beads pass a laser one at a time.)

B1: 1746_N-BLA_SpyT: phylomer CPP 1746 fused to N-terminal β-lactamase fragment and SpyTag (protein)
chain: MASPLKPKKPKTQEKKKKQPPKPKKPKTQEKKKKQPPKPKRASSGSHHHHHHGTGAGSGHPETLVKVKDAEDQLGARVGYIELDLNSGKILESFRPEERFPMMSTFKVLLCGAVLSRIDAGQEQLGRRIHYSQNDLVEYSPVTEKHLTDGMTVRELCSAAITMSDNTAANLLLTTIGGPKELTAFLHNMGDHVTRLDRWEPELNEAIPNDERDTTTPAAMATTLRKLLTGGGSASGGSGTGATSGAHIVMVDAYKPTKGGTGGS
modifications: left off: His6, internal (after the CPP, by the printed letters), state not stated
notes: phylomer CPP 1746 fused to N-terminal β-lactamase fragment and SpyTag
B1: the “cytosolic delivery and β-lactamase complementation signal by confocal microscopy” value in the experiment with CHO-K1/SpyC_C-BLA cells [1] is “cytosolic delivery”.

B2: 1746c27_N-BLA_SpyT: phylomer CPP 1746c27 fused to N-terminal β-lactamase fragment and SpyTag (protein)
chain: MASKKKKQPPKPKKPKTQEKKKKQPPKPKRASSGSHHHHHHGTGAGSGHPETLVKVKDAEDQLGARVGYIELDLNSGKILESFRPEERFPMMSTFKVLLCGAVLSRIDAGQEQLGRRIHYSQNDLVEYSPVTEKHLTDGMTVRELCSAAITMSDNTAANLLLTTIGGPKELTAFLHNMGDHVTRLDRWEPELNEAIPNDERDTTTPAAMATTLRKLLTGGGSASGGSGTGATSGAHIVMVDAYKPTKGGTGGS
modifications: left off: His6, internal (after the CPP, by the printed letters), state not stated
notes: phylomer CPP 1746c27 fused to N-terminal β-lactamase fragment and SpyTag
With B2, the “earliest time at which β-lactamase complementation signal is detectable” value in the experiment on CHO-K1/SpyC_C-BLA cells [1] (8 µM in CHO-K1/C-BLA cells, time after addition of CCF2-AM dye, imaged at 30, 60, 120 min, Figure S2) is on record as 30 min. The “cytosolic delivery and β-lactamase complementation signal by confocal microscopy” value in the experiment with CHO-K1/SpyC_C-BLA cells [1] is on record as “cytosolic delivery”.

B3: 0084_N-BLA_SpyT: phylomer CPP 0084 fused to N-terminal β-lactamase fragment and SpyTag (protein)
chain: MASRKQKSLQTKLAENPPVPRKKRQSRPRWKQWLQKASSGSHHHHHHGTGAGSGHPETLVKVKDAEDQLGARVGYIELDLNSGKILESFRPEERFPMMSTFKVLLCGAVLSRIDAGQEQLGRRIHYSQNDLVEYSPVTEKHLTDGMTVRELCSAAITMSDNTAANLLLTTIGGPKELTAFLHNMGDHVTRLDRWEPELNEAIPNDERDTTTPAAMATTLRKLLTGGGSASGGSGTGATSGAHIVMVDAYKPTKGGTGGS
modifications: left off: His6, internal (after the CPP, by the printed letters), state not stated
notes: phylomer CPP 0084 fused to N-terminal β-lactamase fragment and SpyTag
For the molecule B3, the “cytosolic delivery and β-lactamase complementation signal by confocal microscopy” value in the experiment with CHO-K1/SpyC_C-BLA cells [1] is reported as “cytosolic delivery”.

B4: N-BLA_SpyT: N-terminal β-lactamase fragment fused to SpyTag; No CPP negative control of split assay (protein)
chain: MGHHHHHHGATLEVLFQGPGGSQLHPETLVKVKDAEDQLGARVGYIELDLNSGKILESFRPEERFPMMSTFKVLLCGAVLSRIDAGQEQLGRRIHYSQNDLVEYSPVTEKHLTDGMTVRELCSAAITMSDNTAANLLLTTIGGPKELTAFLHNMGDHVTRLDRWEPELNEAIPNDERDTTMPAAMATTLRKLLTGGGSASGGSGTGATSGAHIVMVDAYKPTKGVDG
With B4, the “β-lactamase complementation signal (% blue viable cells)” value in the experiment with CHO-K1/SpyC_C-BLA cells [2] is given as “negligible effect”. In the experiment with CHO-K1/SpyC_C-BLA cells [1], the “cytosolic delivery and β-lactamase complementation signal by confocal microscopy” value was “minimal evidence of internalization”.
